Data on 3 molecules can be found in publication PMC11182772, “A non-canonical role of the inner kinetochore in regulating sister-chromatid cohesion at centromeres” (The EMBO Journal, 2024).

Assay [1] has as its target T1, GST-Scc1 (281–420)-SA2 (80–1060) sub-complex (UniProt O60216 281-420; Q8N3U4 80-1060).
T1 sequence (looked up) 1: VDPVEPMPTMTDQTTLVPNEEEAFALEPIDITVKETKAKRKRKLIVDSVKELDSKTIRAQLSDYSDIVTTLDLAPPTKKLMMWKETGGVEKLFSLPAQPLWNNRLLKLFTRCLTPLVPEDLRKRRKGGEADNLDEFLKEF
T1 sequence (looked up) 2: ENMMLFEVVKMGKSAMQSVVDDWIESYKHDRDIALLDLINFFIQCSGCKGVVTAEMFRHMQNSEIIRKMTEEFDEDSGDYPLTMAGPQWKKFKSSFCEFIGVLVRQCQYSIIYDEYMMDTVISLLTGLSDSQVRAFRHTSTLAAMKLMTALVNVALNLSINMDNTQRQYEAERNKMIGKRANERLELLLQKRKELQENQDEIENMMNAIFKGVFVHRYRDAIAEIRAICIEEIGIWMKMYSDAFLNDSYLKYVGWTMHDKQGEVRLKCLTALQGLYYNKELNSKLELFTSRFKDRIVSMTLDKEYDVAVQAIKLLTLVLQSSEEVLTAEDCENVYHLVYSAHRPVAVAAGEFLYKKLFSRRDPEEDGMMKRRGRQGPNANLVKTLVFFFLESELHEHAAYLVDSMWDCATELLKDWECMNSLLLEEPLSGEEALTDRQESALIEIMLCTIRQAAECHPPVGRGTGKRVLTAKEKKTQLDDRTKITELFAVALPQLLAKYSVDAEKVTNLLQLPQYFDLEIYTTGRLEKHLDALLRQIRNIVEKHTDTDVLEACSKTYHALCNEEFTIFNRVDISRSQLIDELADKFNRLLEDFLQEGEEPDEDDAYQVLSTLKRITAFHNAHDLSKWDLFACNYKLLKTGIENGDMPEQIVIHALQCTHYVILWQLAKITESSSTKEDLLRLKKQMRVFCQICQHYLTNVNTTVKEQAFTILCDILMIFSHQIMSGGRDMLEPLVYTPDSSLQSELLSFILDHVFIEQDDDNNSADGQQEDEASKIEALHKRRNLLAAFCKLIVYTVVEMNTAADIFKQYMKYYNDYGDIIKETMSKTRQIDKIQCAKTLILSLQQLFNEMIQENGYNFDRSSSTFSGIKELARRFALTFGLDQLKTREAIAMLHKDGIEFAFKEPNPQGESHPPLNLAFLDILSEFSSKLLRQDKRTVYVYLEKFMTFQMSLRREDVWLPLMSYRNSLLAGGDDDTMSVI
As to the kind of experiment: pull-down; GST-Scc1 (281–420)-SA2 (80–1060) as bait, purified recombinant MBP fusion proteins as prey; immunoblot for MBP. The conditions noted are these: both partners purified. Background: A western blot detects proteins with antibodies after separation by electrophoresis.

The target of assay [2] is T1, GST-Scc1 (281–420)-SA2 (80–1060) …. As to the kind of experiment: pull-down; MBP fusion protein as bait, eluted GST-Scc1 (281–420)-SA2 (80–1060) as prey; binding 2 h, three washes of 5 min in P150 buffer; immunoblot for GST. Conditions: both partners purified.

B1: MBP-Wapl (1–630) (domain or fragment, human, UniProt Q7Z5K2 1-630, looked up)
chain: MTSRFGKTYSRKGGNGSSKFDEVFSNKRTTLSTKWGETTFMAKLGQKRPNFKPDIQEIPKKPKVEEESTGDPFGFDSDDESLPVSSKNLAQVKCSSYSESSEAAQLEEVTSVLEANSKISHVVVEDTVVSDKCFPLEDTLLGKEKSTNRIVEDDASISSCNKLITSDKVENFHEEHEKNSHHIHKNADDSTKKPNAETTVASEIKETNDTWNSQFGKRPESPSEISPIKGSVRTGLFEWDNDFEDIRSEDCILSLDSDPLLEMKDDDFKNRLENLNEAIEEDIVQSVLRPTNCRTYCRANKTKSSQGASNFDKLMDGTSQALAKANSESSKDGLNQAKKGGVSCGTSFRGTVGRTRDYTVLHPSCLSVCNVTIQDTMERSMDEFTASTPADLGEAGRLRKKADIATSKTTTRFRPSNTKSKKDVKLEFFGFEDHETGGDEGGSGSSNYKIKYFGFDDLSESEDDEDDDCQVERKTSKKRTKTAPSPSLQPPPESNDNSQDSQSGTNNAENLDFTEDLPGVPESVKKPINKQGDKSKENTRKIFSGPKRSPTKAVYNARHWNHPDSEELPGPPVVKPQSVTVRLSSKEPNQKDDGVFKAPAPPSKVIKTVTIPTQPYQDIVTALKCRREDK
notes: human Wapl, residues 1–630, with all three FGF motifs; vector pMal-C2E; also called MBP-fused Wapl (1–630); source: E. coli BL21 (DE3), purified (amylose resin; on resin or eluted)
For B1, in assay [1], the binding result is on record as “binds”.

B2: MBP-CENP-U (1–200) (domain or fragment, human, UniProt Q71F23 1-200, looked up)
chain: MAPRGRRRPRPHRSEGARRSKNTLERTHSMKDKAGQKCKPIDVFDFPDNSDVSSIGRLGENEKDEETYETFDPPLHSTAIYADEEEFSKHCGLSLSSTPPGKEAKRSSDTSGNEASEIESVKISAKKPGRKLRPISDDSESIEESDTRRKVKSAEKISTQRHEVIRTTASSELSEKPAESVTSKKTGPLSAQPSVEKENL
notes: human CENP-U, residues 1–200; vector pMal-C2E; also called MBP-fused CENP-U (1–200); source: E. coli BL21 (DE3), purified (amylose resin)
As to B2, in assay [2], the binding result is “binds”.

B3: MBP-Sgo1 (230–400) (domain or fragment, human, UniProt Q5FBB7 230-400, looked up)
chain: DPLVNMHIPENVQHNACQWSKDQVNLSPKLIQPGTFTKTKEDILESKSEQTKSKQRDTQERKREEKRKANRRKSKRMSKYKENKSENKKTVPQKKMHKSVSSNDAYNFNLEEGVHLTPFRQKVSNDSNREENNESEVSLCESSGSGDDSDDLYLPTCKYIQNPTSNSDRPV
notes: human Sgo1, residues 230–400; vector pMal-C2E; also called recombinant MBP-Sgo1 (230–400); source: E. coli BL21 (DE3), purified (amylose resin)
For B3, the binding result in assay [1] was “binds”.
